Consider 36 sequences from the supplement of paper PMC10567573.

± gives the standard deviation.

The nature of the series: protein stability index of a GFP-peptide fusion (GPS, HEK-293T) (PSI 1-6); higher = more stable. The settings on record: c terminus: a fixed tail appended.
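Also: 24-mer peptide tiles fused after GFP, lentivirally expressed, FACS-sorted into six equal bins by GFP/DsRed ratio, decoded by Illumina sequencing, PSI is the read-weighted mean bin number.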

Regarding ALHSLTQAGDYSMRVDLRAGDEAV [TNXB], the protein stability index by setting is: (treatment: DMSO) 3.39 ± 0.57; (treatment: MLN4924 1 uM, 8 h) 3.6 ± 0.49.
For ALKKRSGKKDKHSQSPRAAGPREG [PBXIP1], in that order: 4.64 ± 0.14 and 4.83 ± 0.34.
In the same order, the values of ALKKSADWVSDWSSRPENIPPKEF [BNIP3L] are 3.55 ± 0.23 and 3.77 ± 0.18.
For ALNWTDIPVAMEHQPPYIIAVLPR [VPS39], in that order: 2.23 ± 0.38 and 2.25 ± 0.29.
Consider ALRQSVEADINGLRRVLDELTLSK [KRT13], for which the protein stability index was 3.08 ± 0.2 (treatment: DMSO) and 3.09 ± 0.26 (treatment: MLN4924 1 uM, 8 h).
Take ALSGKYSREFFNRRGELRHITKLK [SRPK2]: the protein stability index by setting is: (treatment: DMSO) 2.87 ± 0.15; (treatment: MLN4924 1 uM, 8 h) 3.28 ± 0.27.
Take ALVDGQIFCLHGGLSPSIDTLDHI [PPP2CA]: the protein stability index runs as follows: (treatment: DMSO) 1.9 ± 0.19; (treatment: MLN4924 1 uM, 8 h) 2.19 ± 0.38.
On to ALVETSYVKVLHHMVKISGGPHIS [MAGEA3], for which the protein stability index (treatment: DMSO) turned out to be 2.8 ± 0.52 and the protein stability index (treatment: MLN4924 1 uM, 8 h) was 2.82 ± 0.78.
For AMCVGCGSQIHDQFILRVSPDLEW [ISL2], in that order: 2.18 ± 0.36 and 2.16 ± 0.21.
On to AMYISQEEWGHQDPSKRALSRDTV [ZNF263], for which the protein stability index stood at 3.81 ± 0.12 (treatment: DMSO) and 4.06 ± 0.14 (treatment: MLN4924 1 uM, 8 h).
ANLPVPTIAAIDGLALGGGLELAL [AUH] registered a protein stability index (treatment: DMSO) of 2.35 ± 0.37 and a protein stability index (treatment: MLN4924 1 uM, 8 h) of 2.02 ± 0.55.
For APFLSQADDPDDGPVPGTPGLPGS [SPNS1], in that order: 5.55 ± 0.34 and 5.43 ± 0.21.
Regarding APLRKLSVDLIKTYKHINEVYYAK [DYRK1B], the protein stability index is, setting by setting: (treatment: DMSO) 2.84 ± 0.15; (treatment: MLN4924 1 uM, 8 h) 2.96 ± 0.25.
Take APSNSTSLNSTFGSTNLTGLFFPP [NFE2L1]: the protein stability index reads like this: (treatment: DMSO) 3.32 ± 0.26; (treatment: MLN4924 1 uM, 8 h) 3.08 ± 0.29.
AQQDLAPDPDAWLRALGELLRRDL [FANCE] gave a protein stability index (treatment: DMSO) of 3.11 ± 0.4 and a protein stability index (treatment: MLN4924 1 uM, 8 h) of 3.15 ± 0.3.
For ARIYIRRTLRNFINDEMQAKGIPQ [PCMTD1], in that order: 2.01 ± 0.33 and 2.15 ± 0.18.
For ARLNGSVASYILASHNGISYKDLD [TENT5D], in that order: 2.85 ± 0.47 and 2.68 ± 0.21.
With ARPSSASIRDANLYVSGLPKTMSQ [ELAVL3], the protein stability index stood at 4.08 ± 0.61 (treatment: DMSO) and 3.81 ± 0.098 (treatment: MLN4924 1 uM, 8 h).
Take ARRQHLKSVMLQIAATELEKEESR [TNNI2]: the protein stability index reads like this: (treatment: DMSO) 4.31 ± 0.23; (treatment: MLN4924 1 uM, 8 h) 4.36 ± 0.33.
On to ASDPLLSSVSPAVSKASSRRSSFS [TFE3], for which the protein stability index reads like this: (treatment: DMSO) 4.69 ± 0.15; (treatment: MLN4924 1 uM, 8 h) 4.79 ± 0.25.
For ASLKSEAESLKGKLEEERAKLHDV [GNB5], in that order: 5.32 ± 0.11 and 5.26 ± 0.32.
In the same order, the values of ATEPATCFPSTQKPTEPSVPVQPL [FBF1] are 4.9 ± 0.099 and 4.96 ± 0.1.
As for ATLPGIFMLLLIFFAFLHCWLNAF [SOAT2], the protein stability index runs as follows: (treatment: DMSO) 2.46 ± 0.5; (treatment: MLN4924 1 uM, 8 h) 2.3 ± 0.36.
Take AVAGPPAAAEVGGGVGGSSRARSA [ANKRD17]: the protein stability index by setting is: (treatment: DMSO) 5.36 ± 0.22; (treatment: MLN4924 1 uM, 8 h) 5.14 ± 0.33.
For AVIDSEKDMNFLKRYAGREEHWVG [CD69], in that order: 2.72 ± 0.39 and 3.08 ± 0.29.
For AVQRLEGALWGLQAQAVQTEQAVA [SCARA5], the protein stability index reads like this: (treatment: DMSO) 2.89 ± 0.19; (treatment: MLN4924 1 uM, 8 h) 3.01 ± 0.34.
For the sequence AVVKPGNTKEKIAFFASHQCSNRI [FBXO34], the protein stability index (treatment: DMSO) came out at 3.81 ± 0.24 and the protein stability index (treatment: MLN4924 1 uM, 8 h) is 3.83 ± 0.35.
For AWFGFAGTPGYLSPEVLRKDPYGK [CAMK2A], the protein stability index by setting is: (treatment: DMSO) 2.46 ± 0.2; (treatment: MLN4924 1 uM, 8 h) 2.88 ± 0.34.
In the same order, the values of AWKDDFALNSMLRRRFREKKKAIQ [YJU2B] are 3.27 ± 0.36 and 3.37 ± 0.13.
For AYTQTQFHNLRNTLDGYGIHPKSI [NFE2L1], in that order: 2.57 ± 0.3 and 2.34 ± 0.26.
For AYVLSKYQYFVCPVEYRSDVNSFV [CDS1], the protein stability index reads like this: (treatment: DMSO) 2.6 ± 0.46; (treatment: MLN4924 1 uM, 8 h) 2.68 ± 0.75.
For CADVILVLQERVRIFAHKIYLSTS [RHOBTB2], in that order: 3.01 ± 0.25 and 3.02 ± 0.49.
For CDDYFFIAHRGERRGIGGIFFDDL [CPOX], in that order: 2.16 ± 0.31 and 1.96 ± 0.45.
For CEKYLPGYYSEKLEAIQLDGEILF [TBC1D10A], in that order: 2.14 ± 0.19 and 2.12 ± 0.24.
As for CFVLFSLTHTHTHTPNHRGINCFF [ANKRD44], the protein stability index stood at 2.66 ± 0.032 (treatment: DMSO) and 2.82 ± 0.5 (treatment: MLN4924 1 uM, 8 h).
For CGKCFSQNTHLTRHQRTHTGEKPY [ZNF263], in that order: 2.94 ± 0.16 and 3.22 ± 0.14.
